± gives the uncertainty stated by the source.
Assay: amyloid nucleation score (Sup35N fusion, yeast selection) (log enrichment); library NNK3; higher = more nucleation; inactive = no reads after selection
How it was run: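 On medium lacking adenine and uracil, psi-negative yeast expressing peptides of 20 random codons fused to Sup35N were grown 7 days at 30°C after a 24-hour induction with 100 μM copper sulfate. Illumina sequencing of input and output plasmid inserts gave the reads, and sequences under 100 input reads were excluded. The nucleation score is the DiMSum log enrichment of output over input reads, centred on the mode score of non-aggregating sequences.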

Substance | amyloid nucleation score
YKCYMFANYGIPVVVLFVVL | inactive
NRTWIGIIHLFGLYYGVCGG | 0.621 ± 0.2
RVVNRFRNCWK | 0.717 ± 0.19
LFDILGMYEDMASVGFCIPQ | inactive
NCDCSIAEPESILRFESPRE | inactive
GLGSFLRQRRACPSGGTQ | inactive
HGDDCGDRDCGGRKECTGIA | inactive
YAPSVLSCN | inactive
YYMNVESALECECWTIFKPC | inactive
NADTYNRSDEKMTGRYWDRR | inactive
NYDIILMLGWSVTFKLKVRF | -0.36 ± 1.1
TYVGVYALIF | -1.12 ± 1.5
AYETFGNCRLVASVIIDGIS | inactive
MMYNVMVSSRLMRLCFSRRV | inactive
ILVFM | 0.509 ± 0.24
KHILFE | inactive
VDVQVINLAFETFECCAFIK | 0.82 ± 0.16
SKDGSSSTRQVTIVGRVLVF | inactive
FFYEPGVPRFYFQLFLLLSF | inactive
RVFGLMYSQREMCTWSVRNR | 0.446 ± 0.13
ILIRREFGLFTNFSMYGSKA | inactive
FCRHVKFYRMRAACVDNRRI | inactive
FDKTCGSSRNLSRAWDNLTF | inactive

Substance | amyloid nucleation score
DVPSSSSMAFGIWLGLLCLD | inactive
FLEKGLFSLDISFARDLAEA | inactive
LTLISGIAFLCLLLDNHNTV | inactive
GICHAACCCANVMYCSWHVR | 1 ± 0.16
FELDIAYTEVLAVDCIPVVL | inactive
WGSGY | inactive
HSVSLNYLGIR | inactive
YGGMVN | inactive
LMDLNADKWHNAFTYSSVVE | inactive
GLWRLSCKSYAWHF | inactive
WVFISKQLVNDVAWPVLCAL | -0.17 ± 0.85
MMYRSRFGLKMLPGLQPAIA | inactive
CLYLYVRLRYSLVSSSHPFL | inactive
FGQGGALFLWKCMTYFILLG | inactive
VNYYRCWLVSIRYYSLHDHL | 2.35 ± 0.055
PPCYKI | inactive
MCRSNFAWSPSHK | inactive
RCLRKSSIFA | inactive
RRVSSSLIEAYYREQSRFQI | inactive
FCLCAFSALQRVYI | inactive
SNPHDDSHDVILVFLVLGRC | inactive
RQRMSGQNVTNNHACLFKAR | inactive
LILNYGGLPWFIPIP | inactive

Substance | amyloid nucleation score
IPYKHIHRMPFFYHWQQRFG | inactive
HCPVSIY | inactive
ERRVLISERAQWISLLYGIL | inactive
CWRCFSAD | 0.041 ± 0.6
FGKGRHWISAPSRWVRGDFG | inactive
VRAMCLPHV | inactive
CSRSKNNTFRHSLWFHRYYA | inactive
SCIYMSC | 1.73 ± 0.073
SFMLVFNDSAWLTSAHVYWA | inactive
NNDIVKGSPPPWVMFLVALH | inactive
TCFKM | inactive
HWCRQNNSIFMRS | inactive
TEYFWGNYRKLCCFWWWLGR | inactive
SCLHHFMEDSEPMNMGRVVK | inactive
SKSHLTIVSSYDHFHYMVRV | inactive
TSIMSKGGGSYLSWNWHGWL | inactive
NINRSPWLIGWGLPKLKRDH | inactive
TILWGLQTQTQNCVVWKLGR | 1.69 ± 0.12
ASTRNVGYRVT | inactive
HTYLLLRDNLLFTVIHTPRN | 2.02 ± 0.075
NYVPQSGYNVDNVLNILTKL | inactive
YFSSSWGMLKCGFAVFDHLT | inactive
SKALVSLWFLISMMNPYFIR | inactive

Substance | amyloid nucleation score
NISWVAFMIVLHLDRLNMF | inactive
RGFICIGTLYLLAPVFCARS | 2.85 ± 0.062
RHGKIAAS | inactive
FVGSLLGKSKFLGLHCCKEV | -0.08 ± 0.66
SFFDYAHRASSVFLGIFPEP | inactive
KRVKSPNILEMVNYAQ | -0.487 ± 0.9
DNKSL | inactive
CEDGA | -0.068 ± 0.75
VSTRGITDMMLGDMAVVNVG | inactive
FRAWYDTAMSQSLFLCRKGA | inactive
DLVVNGSFNTDTCFETVSVH | inactive
CRGYADFT | inactive
CNIISQTRGHEISQCGSWMW | inactive
KSHPINIRPFKYIPKMLASS | inactive
LLVMGFCRVLCDLGGRYVRV | inactive
YGSVFSMSMTHA | inactive
VALWWTVMYRFFMALTFIMQ | inactive
HITNGRGWRHGRVWSSIWFF | inactive
RWSGHTWTCVQDRMVCICNS | inactive
FWGSTWSLRVL | inactive
NKYLMINLGYQGSKENDIGV | inactive
LFGDMIMVSSCWSKRNCSVA | inactive
FGDAYM | inactive

Substance | amyloid nucleation score
VCHKCCDRIQSLVGVRGHQE | inactive
LLSETAHLFVFT | inactive
ASRIDNIDWGGRKKLRNVEG | inactive
FFARMTALPLLQILYGSLRA | inactive
GIFLSEWWLGSVSCVRTNVP | inactive
YRRGYKITSLLSFYGNHRWP | inactive
YFGFYSLWYKYYVTSISRSL | inactive
NIIKSTVIY | inactive
RENTNSFGVNCGTQFGRISL | 1.56 ± 0.099
DFSSCCDHPFIVI | 0.346 ± 0.75
RSSDYNRLHRSFSCNG | inactive
YGIVYSCCIVSVIEDFKLLK | 2.57 ± 0.082
VCTVQCFEKIEL | inactive
PFLCFRIYFSACWINLTLNL | 1.78 ± 0.086
CYFTASCLWMNANIDVSLSK | inactive
VYGSQGYRGRCFHLCYYYRS | inactive
DKVIHVAGFKVIDCHSSRIR | inactive
GLKWWLISASSVNFICVRYT | 0.104 ± 0.23
CRYLICVGS | inactive
MFTTSCWILKER | 0.248 ± 0.23
AYVFVYESYAWGNLRQ | inactive
PTKDVMVGSK | inactive
SRGLFTNGVASFRRVCGLPW | inactive

Substance | amyloid nucleation score
WGVGTPVRLWFIEANPVGHV | inactive
NVFSFFTTSSEKGLCPPRRS | inactive
MDGGASSREVAWWSLSNRGA | inactive
SLKFIELDMSIVVMSSDYFR | inactive
PVLLIRSKFDQRRAWSFHTV | inactive
NGRNSRQTVIRIVSRWVVNH | inactive
SWTQVKRYSRSTIAILAFHT | inactive
FLETVSFPMKVWSL | inactive
TTMRSIPRGRRT | inactive
TRYIIMCPILCRSEMVLPVR | inactive
RMFFYWDEFYSLIVGVMSGL | inactive
FLSKTLYIVVSHGVGTSGTG | inactive
TYFMRPSNYHVLSLGAG | inactive
GNGIFGLSPR | -1.04 ± 1.4
VKVVNTSCPMDGLPNCLTRR | inactive
QFITLCLSSRSEVSVPFSLW | 0.997 ± 0.12
TRMRTCSKRY | inactive
HYNVPL | inactive
VRDCTSQLINDGNNLVPGMW | inactive
LFKYLPCARRVQGRES | inactive
LYVSCWFDLRPSTFYLGSEF | 2.48 ± 0.054
IGEPCLWNSV | inactive
KHSDL | inactive

Substance | amyloid nucleation score
FNPERPKAVDFPILNR | inactive
YVAYFSGIVLMHHSRDIQFP | 0.496 ± 0.34
GHNRYIDLSIEIRAL | -0.61 ± 1.1
TDYPLLMLL | inactive
FKSYTWMKNLTVGFRIDPSE | inactive
WECRDETSCARVVFTGLFR | inactive
QVSLLYSVECMTFSFGNGDA | 1.6 ± 0.11
WCCFSWKVLRHGLTSACGC | 1.31 ± 0.11
HDLNWNSMVRCRVNVSSVIV | inactive
EKRYRPEKTF | inactive
TLSSLPVPL | inactive
RLLFSATFSRNFISCTKSSS | inactive
SISQTIVCTRPRVSAMIWFC | inactive
WCCGY | 0.774 ± 0.27
YYVYSRGALLYHYILQMARL | inactive
YRIESFIGY | inactive
VYGWMVVHVGRLWTWLHRLL | inactive
LFNTRERRYMEWPTAWRLRR | inactive
LVPFLVDIHVGWDISLKVVR | inactive
WFSNVGVVEVASSRCREWGI | inactive
